In the DeepSol protein solubility set:

Test: soluble on expression in E. coli; label from the status in PepcDB or PDB records

Row | Sequence | soluble on expression in E. coli
1 | MPTPRRSGRVIVYTGDGKGKTTAALGLALRAVGRGMNVAVLQFLKSPERTYGEQLALERLGVDVRQLGAGFTWTKTPDIHREALKRAWAVAKEYVYSGRYDMIVLDELNNVLAIDRFPVEDIVSVSEVLELIRTRPPSLHLVITGRAARPELMAAADIVTEMKLIKHDYEQGRTAMKGIEF | soluble
2 | MSLKIPEAVNHINVQNNIDLVDGKTNPNKATKALQKNILRVTNSSSSGISEKHLDHCANTVKNFLRKSIAAQSYSKMFSQGTSFKSLNLSIEAPSGARSSFRSLEHLDKVSRHYISEIIQKVHPLSSDERHLLSIIINSNFNFRHQSNSNLSNNILNIKSFDKIQSENIQTHKNTYSEDIKEISNHDFVFFGVEISNHQEKLPLNKTHHTVDFGANAYIIDHDSPYGYMTLTDHFDNAIPPVFYHEHQSFFLDNFKEVVDEVSRYVHGNQGKTDVPIFNTKDMRLGIGLHLIDFIRKSKDQGFREFCYNKNIDPVSLDRIINFVFQLEYHIPRMLSTDNFKKIKLRDISLEDAIKASNYEEINNKVTDKKMAHQALAYSLGNKKADIALYLLSKFNFTKQDVAEMEKMNNNRYCNLYDVEYLLSKDGANYKVLEYFINNGLVDVNKKFQKANSGDTMLDNAMKSKNPKMIDFLLKNGAILGKRFEIEGHHHHHH | soluble
3 | MLKQNTEREGRTIEQEDLKNLENEITEARENEDKYFSTFKGVRGQLIKECQEMKDEAFKIAYDGVMADSKHLENVKAGRLTEVQHEELAKEKGQEASEKALPKTPLGVAIMLKHYLRFIRVKPEAQGQKAPLYFFHPDHGVWLEDNEFLQDLISVIFPNATEKQAFDTLYKIARQSQLKEIQREYTVIGNQLYNYKTGQFEELTPDITVTRKIKTGYNKKAKEPTIKGWKPTAWLLELFDGDAELYNLAIQIIKASITGQSLQKIFWLFGEGGTGKGTFQQLLINLVGMDNVASLKITELAKSRFTTSILLGKSIVIGDDIQKDAVIKDTSDIFSLATGDIMTIEDKGKRPYSIRLNMTVVQSSNGLPRMNGDKSAIDRRFRILPFTKVFKGKPNKAIRNDYINRKEVLEYLLKLAIETPITDINPKASIEILEEHHKEMNPVIDFVSKFFTDELTSEFIPNSFVYHVWKGFLEYYDIKQIKSERGLHKEIKSNLPEGFEAGQKVIPVGRQLHTGFYPKEDLPLFASASYANGRASPEKRKKPKNERGYYNHWPTHKKQKKT | soluble
4 | MLRVYHSNRLDVLEALMEFIVERERLDDPFEPEMILVQSTGMAQWLQMTLSQKFGIAANIDFPLPASFIWDMFVRVLPEIPKESAFNKQSMSWKLMTLLPQLLEREDFTLLRHYLTDDSDKRKLFQLSSKAADLFDQYLVYRPDWLAQWETGHLVEGLGEAQAWQAPLWKALVEYTHQLGQPRWHRANLYQRFIETLESATTCPPGLPSRVFICGISALPPVYLQALQALGKHIEIHLLFTNPCRYYWGDIKDPAYLAKLLTRQRRHSFEDRELPLFRDSENAGQLFNSDGEQDVGNPLLASWGKLGRDYIYLLSDLESSQELDAFVDVTPDNLLHNIQSDILELENRAVAGVNIEEFSRSDNKRPLDPLDSSITFHVCHSPQREVEVLHDRLLAMLEEDPTLTPRDIIVMVADIDSYSPFIQAVFGSAPADRYLPYAISDRRARQSHPVLEAFISLLSLPDSRFVSEDVLALLDVPVLAARFDITEEGLRYLRQWVNESGIRWGIDDDNVRELELPATGQHTWRFGLTRMLLGYAMESAQGEWQSVLPYDESSGLIAELVGHLASLLMQLNIWRRGLAQERPLEEWLPVCRDMLNAFFLPDAETEAAMTLIEQQWQAIIAEGLGAQYGDAVPLSLLRDELAQRLDQERISQRFLAGPVNICTLMPMRSIPFKVVCLLGMNDGVYPRQLAPLGFDLMSQKPKRGDRSRRDDDRYLFLEALISAQQKLYISYIGRSIQDNSERFPSVLVQELIDYIGQSHYLPGDEALNCDESEARVKAHLTCLHTRMPFDPQNYQPGERQSYAREWLPAASQAGKAHSEFVQPLPFTLPETVPLETLQRFWAHPVRAFFQMRLQVNFRTEDSEIPDTEPFILEGLSRYQINQQLLNALVEQDDAERLFRRFRAAGDLPYGAFGEIFWETQCQEMQQLADRVIACRQPGQSMEIDLACNGVQITGWLPQVQPDGLLRWRPSLLSVAQGMQLWLEHLVYCASGGNGESRLFLRKDGEWRFPPLAAEQALHYLSQLIEGYREGMSAPLLVLPESGGAWLKTCYDAQNDAMLDDDSTLQKARTKFLQAYEGNMMVRGEGDDIWYQRLWRQLTPETMEAIVEQSQRFLLPLFRFNQS | soluble
5 | MSDFEETIRRLQSEKGVVGIIVVDSAGRVIHSTIDSDATQSHTAFLQQLCEKTKTSIRELDSSNDLTFLRLRTKKNEIMIAPDKDHVIMVIKDLS | not soluble
6 | KMKLYNFWRSGTSHRLRIALNLKGVPYEYLAVHLGKEEHLKDAFKALNPQQLVPALDTGAQVLIQSPAIIEWLEEQYPTPALLPADADGRQRVRALAAIVGCDIHPINNRRILEYLRKTFGADEAAINAWCGTWISAGFDAYEALLAVDPKRGRYSFGDTPTLADCYLVPQVESARRFQVDLTPYPLIRAVDAACGELDAFRRAAPAAQPDSA | soluble
7 | MSLMLKKNDIIQVAISDLSHEGAGVAKHDGFVFFVDNALPEEVIDMRVLKVNKNSGFGKVEAYHYLSSARNADVNLTYLRTGIADLGHLTYEDQLTFKKKQVQDSLYKIAGISDVTVESTIGMTEPLAYRNKAQVPVRRVNGQLETGFFRKHSHDLIPISDYYIQDKEIDRLINFTRDLLRRFDIKPYDETEQTGLLRNIVVRRGHYSGEMMLVLVTTRPKVFRVDQVIEKIVEAFPAVVSIIQNINDKNTNAIFGKDFKTLYGKDTITDSMLGNNYAISAQSFYQVNTVMAEKLYQTAIAFSDLSKDDIVIDAYSGIGTIGLSFAKTVKAVYGVEVIEAAVRDAQQNAALNGITNAYFVADTAEHAMATWAKDGIKPSVILVDPPRKGLTESFIQASVAMGPQKITYVSCNPATMARDIKRYQELGYKLAKVQPVDLFPQTHHVECVVLLIKEEGHHHHHH | soluble
8 | SIDEEMQVEAAKALREALQKYDRGRGKWHGTGKSIEPAKLGDEEVWRAELAATEVARDVDLGGRWHPAVVLGVGEQDLSVGVEDGPAKGRVPRSDIKWMKGSFKDNFKLGDVVLVRKADEDWSLRQVPEVQGGFMAMDVNTGRVLAMQGGFSYQDSVFNRATQALRQPGSSFKPFVYAAALDSGYSPATIVVDAPIEVNTPQGLWRPKNASNKFYGPTPLRTGIERSRNLMTIRLAQEVSMPVVAGYAERFGVYDHMGPFLANALGSEETTLYKMVAAYAMFANGGERVEPTLVDRIQDRFGKTIYRHDQRDCVDCLSDRLEPDQAPRIVTNRERVMNAITAYQLTSMMRGVVERGTASGTVKLPVPTAGKTGTTNDAKDVWFIGFTSNIVAGCYIGYDRPQPLGRGASGGGMCGPVFQSFMTEAVKKFGGGPF | not soluble
9 | MASMTGGNNMGRGSMGAMDQEIGTVTDTKMDPRDFLQLLKINAEKAEKNLPLDQKRAGMEALCERFPRAEGVELTLTDLGGVPCIRQATDGAGAAHILYFHGGGYISGSPSTHLVLTTQLAKQSSATLWSLDYRLAPENPFPAAVDDCVAAYRALLKTAGSADRIIIAGDSAGGGLTTASMLKAKEDGLPMPAGLVMLSPFVDLTLSRWSNSNLADRDFLAEPDTLGEMSELYVGGEDRKNPLISPVYADLSGLPEMLIHVGSEEALLSDSTTLAERAGAAGVSVELKIWPDMPHVFQMYGKFVNAADISIKEICHWISARISKLAAALEHHHHHH | soluble
10 | MSLTDPAPEPEPPVEGQWTALTASPDTWDETKRADISYQLLLYSFADSDGDGYGDLNGVTQKLDYLNQLGVKALWLSPIHPCMSYHGYDVTDYTKVNPQLGTESDFDRLVTEAHNRGIKIYLDYVMNHTGTAHPWFTEASSSSESPYRNYYSFSEDPKTDIAAGKIAMITQEGAAGYNAAEWFQVSDETAAVKGLLKFTLDWSNAPSPILVVSTGTKADEDNPDTGTDNAKYLYYGEDICKKFYDKGNNIYELTVDFESTWGLLIRTSNASFWPSGTKYGASSSSEKLALNKDFKLTNAGNPANIMFDSQQITYFHSHFCTDWFADLNYGPVDQAGESPAYQAIADAAKGWIARGVDGLRLDAVKHIYHSETSEENPRFLKMFYEDMNAYYKQKGHTDDFYMIGEVLSEYDKVAPYYKGLPALFEFSFWYRLEWGINNSTGCYFAKDILSYQQKYANYRSDYIEATKLSNHDEDRTSSKLGKSADKCKLAAAVLLTSAGHPYIYYGEELGLYGTKDNGDEYVRSPMLWGDSYTTNYTDKTDATVSKNVKTVADQQADTHSLLNIYFSLTRLRNTYPALAEGNMTKHSVYNEGHHHHHH | not soluble
11 | MGSDKIHHHHHHVEKLVILHTNDLHSHFENWPKIRRFMLGTRAAEQAEGASVLAFDDGDAMDRSAPLTEATQGQINVQLLNEIGYDAATIGNNEGVGNPHDVLEHLYDHANFPVALANLFEVDGSRPTWAKPFVRTQTRAGTRIAIVGFTAPFFLTYRPNGWQVKTVADVFPDILKQLSGTYDVLIVLSHLGIEADRHLAKQYPEIDVVIGGHTHHLLADGELHGTTLLTAAEKYGHYVGKVTLTLDDQHQIITRQAETFKTELMQAAAADPREIQGYESKGIALLKQHQVARLPKQLSIKYDGPSPLLDLGLEALADGAQVDAAILNAGLFLMPLGPGVVTQADLLTCLPHPMHLLKVTLSGKELWRLIMEMEKNRMFLRHFHMIGMSFRGKIFGDIGYRGISVNREKRVVLWHGKPLVPEQQYTFVTVDNFLFIPFFPTIEIMGSNELLFPKLLRNVVGEYLAQKYPL | not soluble
12 | MDWIQCNHCGIKPNQTKLYLTACGHVFCQNCTKAAFNSQCYLCKKPLKVDEINKNLRPDLMELFKDPRQLASDLVNELKQVVAFQAKQREIYVKCKNAEAKKDTERFAEARSKHVEKTQEIEKRKKAFLEDNVKLKNAKEEKNQLMARLKELREQPSQNLSVNKRRSNTRTEPPFSKISRTGPPSVMRKASHEFSLNLRDQSTSKILTSTPLSNIDYSRRDHRNRLFGAGLEHPSPILRQ | soluble
13 | MGSDKIHHHHHHMLKINMFSAADSVKGQGVGSAYNELMNLLKTHLNQEFDVSVNRYRRVDITHYHTINFSYYLSTFLPHRGRKIGYVHFLPETLEGSLKIPQPFRSIFYAYVLAFYRRMDHIVVVNPTFIPKLVAAGIPAERVTYIPNFVSRDEFYPVTVEQKQALRQQYGYATDRFTILGIGQIQERKGLFDFIKLARNNPSYQFIWAGGFSFGRMTDGYAELKKVVDNPPANLSFPGIVDRDKLVDYYNLADLFLLPSFNELFPMSVLEAFSTGTPVLLRDLDLYQAIIAGDYQPAKDYAEMDEQLHRLAADPQALAHWRQQSLAAADRYSEEHLTQIWREFYTQQAKER | not soluble
14 | MAHHHHHHMDYEEPGQATRELTTFVQGLLQNMQTRFQEMSDTIITRIDEMGTRIDDLEKNIAELMQQAGPDEEAAQTASAPKDKKKSKGK | soluble
15 | MGSDKIHHHHHHMQFDNLLSRADDGTLQVLLGNAAVRLIKLLDPSLVTPSRLREILMELHTPASLLLTKDSRAMLLDLLRPEQAKILATIMQVPLTGDIFETLKKTSIRHGSNRERALFDFFELELPQPEDSVQSSSLELAVSNYPLFAHQRIAARKVKNYFKQEPRRVLLHMPTGSGKTRTAMNIIADHLRSVEPTIVVWLAYSEELCEQAATEFQKAWQCLGDRQVSLYRFWGEHEIDVDKLEDGIVVAGLSKVYNRTKQSIQFINRLGKVSSLVIIDEAHQAIAETYKLVLDALVVPYENTALLGLTATPGRTWSDINVDTELSEFFAKNKVTLEVSGYSNPVDYLISEEYLAKPNFRSLFYKNGLKLTQKDLERIQQELEIPQHILEQLADDEQRNLSIIIEVEELAKRHQRILIFGISIKHSKLLATVLRARGLQANVVTGDTPLLERTRLINSFKDDSDETKIICNYGVLTTGFDAPRTSAAVIARPTKSLVLYSQMVGRAIRGVKAGGNVTAEIVTVVDSALRGFGSLEEAFSNWEDVWHKEKI | not soluble
